“And” between values parts separate entries of the source, which are not always exact repeats. Equal values may be shown once.
How the values were obtained:
[1] = target: γ-tubulin small complex (γTuSC) with γ-tubulin^S48C/S153C, Spc97-YFP and Spc98-CFP (budding yeast) (UniProt P53378); assay: FRET or BRET
[2] = target: E. coli-expressed GST-Spc110p^1-220 (budding yeast) (UniProt P32380); assay: SEC-MALS
SEC-MALS = target: the molecule itself; assay: SEC-MALS

**Q.** What does the source list for “Spc110p^1-220 tetramer (Spc110p^1-220 fused with the tetramer-forming mutant coiled-coil domain of GCN4, GCN4-LI) (from UniProt P32380 1-220)”?
**A.** Kd [1]: 4 nM; Kd2 (Spc110p tetramer with a single γTuSC) [1]: 43 nM; Kd3 (a second γTuSC binding to the complex of Spc110p tetramer and one γTuSC) [1]: 3 nM

**Q.** Which stoichiometry N [2] does the source give for “E. coli-expressed GST-Spc110p^1-220 (from UniProt P32380 1-220) (domain or fragment)” here?
**A.** 2 and 4

B1: Untagged Spc110p^1-220 (domain or fragment, budding yeast, UniProt P32380 1-220, looked up)
chain: MDEASHLPNGSLKNMEFTPVGFIKSKRNTTQTQVVSPTKVPNANNGDENEGPVKKRQRRSIDDTIDSTRLFSEASQFDDSFPEIKANIPPSPRSGNVDKSRKRNLIDDLKKDVPMSQPLKEQEVREHQMKKERFDRALESKLLGKRHITYANSDISNKELYINEIKSLKHEIKELRKEKNDTLNNYDTLEEETDDLKNRLQALEKELDAKNKIVNSRKVD
**Q.** Which “stoichiometry N” value (SEC-MALS) does the source give for B1 here?
**A.** 2

— publication PMC4945142 (Molecular Biology of the Cell, 2016)
